The results in this text go back to publication PMC10072072 (mAbs, 2023).

Assay [1] deals with Human CD3 epsilon-delta (εδ) heterodimer, Fc fusion (Homo sapiens, UniProt P07766;P04234). Briefly: BLI.
For assay [2], the target named is Cyno CD3εδ heterodimer, Fc fusion (Macaca fascicularis, UniProt Q95LI5;Q95LI8). Briefly: BLI. For orientation: Biolayer interferometry detects binding as a change in optical thickness at a sensor tip.
Assay [3] has as its target CD3 on the surface of human Jurkat T cells (Homo sapiens (Jurkat), UniProt P07766;P04234). Briefly: flow cytometry on cells. On the technique in general: A flow cytometer gives signals particle by particle.
Assay [4] deals with CD3 on the surface of cyno HSC-F T cells (Macaca fascicularis (HSC-F), UniProt Q95LI5;Q95LI8). Briefly: flow cytometry on cells.
Chain of CD3 on the surface of cyno HSC-F T cells (Q95LI5 22-198, one chain of several): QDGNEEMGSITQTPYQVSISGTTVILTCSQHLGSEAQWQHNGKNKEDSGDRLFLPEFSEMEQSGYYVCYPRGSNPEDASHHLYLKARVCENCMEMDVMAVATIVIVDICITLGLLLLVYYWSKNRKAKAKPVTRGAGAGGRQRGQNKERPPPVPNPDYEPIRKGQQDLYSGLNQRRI

Residue numbers refer to the chain shown, from its start. Names and notes keep the numbering of the source.

Chain of Cyno CD3εδ heterodimer, Fc fusion (Q95LI5 22-117, stated change not applied, chain 1 of 2): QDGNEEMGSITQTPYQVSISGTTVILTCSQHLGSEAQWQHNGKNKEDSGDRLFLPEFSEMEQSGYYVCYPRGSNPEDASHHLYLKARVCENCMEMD
Chain of Cyno CD3εδ heterodimer, Fc fusion (Q95LI8 22-100, stated change not applied, chain 2 of 2): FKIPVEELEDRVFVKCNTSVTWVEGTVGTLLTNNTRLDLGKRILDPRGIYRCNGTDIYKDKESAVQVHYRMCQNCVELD
Chain of Human CD3 epsilon-delta (εδ) heterodimer, Fc fusion (P07766 23-126, stated change not applied, chain 1 of 2): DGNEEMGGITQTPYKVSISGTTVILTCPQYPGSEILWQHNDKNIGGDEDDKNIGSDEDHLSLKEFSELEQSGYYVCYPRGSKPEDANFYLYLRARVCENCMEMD
Chain of Human CD3 epsilon-delta (εδ) heterodimer, Fc fusion (P04234 22-100, stated change not applied, chain 2 of 2): as the sequence (Q95LI8 22-100, stated change not applied, chain 2 of 2) above, with V5I, K15N, V20I, T32S, N33D, N34I, A64T, N74S counted along it
Chain of CD3 on the surface of human Jurkat T cells (P07766 23-207, one chain of several): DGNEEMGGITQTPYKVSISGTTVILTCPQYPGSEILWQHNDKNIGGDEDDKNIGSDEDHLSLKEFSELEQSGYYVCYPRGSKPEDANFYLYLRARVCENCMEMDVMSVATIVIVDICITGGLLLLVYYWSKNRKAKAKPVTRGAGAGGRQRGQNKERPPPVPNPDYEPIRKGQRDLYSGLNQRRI

B1: ADI-26906 IgG1 variant L3-R94E (antibody, V domains shown)
VH: QVQLVQSGAEVKKPGASVKVSCKASGFNIKDYYMHWVRQAPGQRLEWMGWIDLENANTIYDAKFQGRVTITRDTSASTAYMELSSLRSEDTAVYYCARDAYGRYFYDVWGQGTLVTVSS
VL: DIVMTQSPDSLAVSLGERATINCKSSQSLLNARTGKNYLAWYQQKPGQPPKLLIYWASTRESGVPDRFSGSGSGTDFTLTISSLQAEDVAVYYCKQSYSERTFGGGTKVEIK
On to B1, for which the binding result in assay [1], in assay [2], in assay [3] and in assay [4] was “binds” in each case.

B2: ADI-26906 Fab (from CHO-produced IgG, papain digest) (Fab, V domains shown)
VH: B1 VH
VL: B1 VL with E100R
Regarding B2, in assay [4], the binding result was “binds”.

B3: ADI-26906 IgG1 (antibody, V domains shown)
VH: B1 VH
VL: B1 VL with E100R
As to B3, the binding result in assay [2] and in assay [4] was “binds” each time.
